From FireProtDB (doi:10.1021/bi0118052)
Several values for one entry are separate records, joined by “and”; a condition that tells them apart may be missing. Identical values can stand only once.

B1: Protein S100-B, P04271 (parent)
chain: MSELEKAMVALIDVFHQYSGREGDKHKLKKSELKELINNELSHFLEEIKEQEVVDKVMETLDNDGDGECDFQEFMAFVAMVTTACHEFFEHE

Variants of: B1
Conditions: Homo sapiens; pH 7.2; 25 °C; GdnHCl; CD; MOPS 10 mM; KCl 50 mM; reversible: yes; structure 1UWO; whole UniProt chain shown

With MSELEKAMVALADVFHQYSGREGDKHKLKKSELKELINNELSHFLEEIKEQEVVDKVMETLDNDGDGECDFQEFMAFVAMVTTACHEFFEHE the denaturant m value was 2.75 kcal/mol/M and 1.43 kcal/mol/M, the “denaturant midpoint (higher = more stable)” value (shortened to “denaturant midpoint”) was 2.3 M and 4.2 M and the unfolding free energy was 13.2 kcal/mol.

In the case of MSEAEKAMVALADVFHQYSGREGDKHKLKKSELKELINNELSHFLEEIKEQEVVDKVMETLDNDGDGECDFQEFMAFVAMVTTACHEFFEHE, the denaturant m value is reported as 2.84 kcal/mol/M and 1.77 kcal/mol/M, the “denaturant midpoint” value is reported as 2.1 M and 3.3 M and the unfolding free energy is reported as 12.2 kcal/mol.

In the case of MSELEKAMVALIDVAHQYSGREGDKHKLKKSELKELINNELSHFLEEIKEQEVVDKVMETLDNDGDGECDFQEFMAFVAMVTTACHEFFEHE, the “ddG of mutation (higher = less stable)” value is reported as 7.53 kcal/mol and 3.42 kcal/mol, the denaturant m value is reported as 1.94 kcal/mol/M and 1.08 kcal/mol/M and the “denaturant midpoint” value is reported as 1.8 M and 2.3 M. For the same variant, the unfolding free energy was 9.78 kcal/mol.

For MSESEKAMVALIDVFHQYSGREGDKHKLKKSELKELINNELSHFLEEIKEQEVVDKVMETLDNDGDGECDFQEFMAFVAMVTTACHEFFEHE, the denaturant m value was 3.3 kcal/mol/M and 2.29 kcal/mol/M, the “denaturant midpoint” value was 2.4 M and 3.2 M and the unfolding free energy was 14.5 kcal/mol.

In the case of MSEAEKAMVALIDVFHQYSGREGDKHKLKKSELKELINNELSHFLEEIKEQEVVDKVMETLDNDGDGECDFQEFMAFVAMVTTACHEFFEHE, the denaturant m value is reported as 3.49 kcal/mol/M and 1.58 kcal/mol/M, the “denaturant midpoint” value is reported as 2.7 M and 3.7 M and the unfolding free energy is reported as 16.1 kcal/mol.

For MSELEKAAVALIDVFHQYSGREGDKHKLKKSELKELINNELSHFLEEIKEQEVVDKVMETLDNDGDGECDFQEFMAFVAMVTTACHEFFEHE, the “ddG of mutation (higher = less stable)” value was 0.65 kcal/mol, the denaturant m value was 1.36 kcal/mol/M and the “denaturant midpoint” value was 3.6 M.

With MSEAEKAMVALIDVAHQYSGREGDKHKLKKSELKELINNELSHFLEEIKEQEVVDKVMETLDNDGDGECDFQEFMAFVAMVTTACHEFFEHE the “ddG of mutation (higher = less stable)” value was 8.94 kcal/mol and 5.16 kcal/mol, the denaturant m value was 1.67 kcal/mol/M and 0.81 kcal/mol/M and the “denaturant midpoint” value was 1.3 M and 1.7 M. The unfolding free energy was 8.39 kcal/mol.
